From the supplement of paper PMC9112550, “Optimization of the antimicrobial peptide Bac7 by deep mutational scanning” (BMC Biology, 2022)

The sequences below were run on Escherichia coli TOP10 (assay: shrunken log2 fold change of peptide-encoding DNA abundance (4.5 h post-induction vs induction); higher = less antimicrobial activity (less host growth inhibition)). Conditions: time post-induction: 4.5 h; library: site-saturation at positions 5, 18, 19, 20.
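Note: peptides expressed intracellularly from a pBAD plasmid library in pooled LB shake-flask culture, induced with 0.3% L-arabinose, DNA abundance read by NGS, three biological replicates, DESeq2 with apeglm shrinkage.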

In order of rising “shrunken log2 fold change” value:
1. RRIRNRPPRLPRPRPRPFHYPRP  -0.925
2. RRIRLRPPRLPRPRPRPLYVPRP  -0.897
3. RRIRSRPPRLPRPRPRPYKIPRP  -0.846
4. RRIRIRPPRLPRPRPRPSIFPRP  -0.764
5. RRIRFRPPRLPRPRPRPVTCPRP  -0.491
6. RRIRERPPRLPRPRPRPLKIPRP  -0.402
7. RRIRERPPRLPRPRPRPHSGPRP  -0.365
8. RRIRERPPRLPRPRPRPHFKPRP  -0.342
9. RRIRNRPPRLPRPRPRPRDKPRP  -0.332
10. RRIRIRPPRLPRPRPRPGYGPRP  -0.309
11. RRIRQRPPRLPRPRPRPLDLPRP  -0.276
12. RRIRNRPPRLPRPRPRPNHRPRP  -0.216
13. RRIRKRPPRLPRPRPRPSWQPRP  -0.212
14. RRIRCRPPRLPRPRPRPQLNPRP  -0.188
15. RRIRQRPPRLPRPRPRPEFIPRP  -0.163
16. RRIRCRPPRLPRPRPRPWQDPRP  -0.154
17. RRIRTRPPRLPRPRPRPYPQPRP  -0.14
18. RRIRNRPPRLPRPRPRPQCRPRP  -0.132
19. RRIRQRPPRLPRPRPRPWLTPRP  -0.13
20. RRIRYRPPRLPRPRPRPDQLPRP  -0.122
21. RRIRNRPPRLPRPRPRPWVWPRP  -0.115
22. RRIRERPPRLPRPRPRPMPEPRP  -0.114
23. RRIRLRPPRLPRPRPRPGYEPRP  -0.11
24. RRIRYRPPRLPRPRPRPYIDPRP  -0.103
25. RRIRYRPPRLPRPRPRPYEYPRP  -0.095
26. RRIRIRPPRLPRPRPRPHTCPRP  -0.0906
27. RRIRGRPPRLPRPRPRPYTYPRP  -0.0842
28. RRIRVRPPRLPRPRPRPFIMPRP  -0.084
29. RRIRHRPPRLPRPRPRPNKKPRP  -0.0825
30. RRIRVRPPRLPRPRPRPCIIPRP  -0.0793
31. RRIRVRPPRLPRPRPRPHFRPRP  -0.0776
32. RRIRPRPPRLPRPRPRPYVPPRP  -0.0652
33. RRIRLRPPRLPRPRPRPCGMPRP  -0.0649
34. RRIRYRPPRLPRPRPRPGNHPRP  -0.064
35. RRIRERPPRLPRPRPRPFEDPRP  -0.0547
36. RRIRFRPPRLPRPRPRPKHFPRP  -0.0499
37. RRIRFRPPRLPRPRPRPWNCPRP  -0.0434
38. RRIRWRPPRLPRPRPRPATIPRP  -0.0366
39. RRIRVRPPRLPRPRPRPICVPRP  -0.0314
40. RRIRPRPPRLPRPRPRPGFSPRP  -0.0307
41. RRIRSRPPRLPRPRPRPGNCPRP  -0.0261
42. RRIRVRPPRLPRPRPRPIYAPRP  -0.0133
43. RRIRFRPPRLPRPRPRPGCRPRP  0.00327
44. RRIRMRPPRLPRPRPRPCKHPRP  0.0196
45. RRIRKRPPRLPRPRPRPIKYPRP  0.0425
46. RRIRYRPPRLPRPRPRPQHEPRP  0.0438
47. RRIRSRPPRLPRPRPRPPSEPRP  0.0467
48. RRIRVRPPRLPRPRPRPKWTPRP  0.0514
49. RRIRHRPPRLPRPRPRPEFEPRP  0.0692
50. RRIRCRPPRLPRPRPRPEFSPRP  0.072
51. RRIRDRPPRLPRPRPRPMIFPRP  0.0749
52. RRIRSRPPRLPRPRPRPKWHPRP  0.0951
53. RRIRCRPPRLPRPRPRPHKRPRP  0.0953
54. RRIRMRPPRLPRPRPRPDTGPRP  0.112
55. RRIRTRPPRLPRPRPRPLLPPRP  0.112
56. RRIRFRPPRLPRPRPRPPSHPRP  0.123
57. RRIRSRPPRLPRPRPRPVPIPRP  0.129
58. RRIRERPPRLPRPRPRPGIWPRP  0.139
59. RRIRRRPPRLPRPRPRPQLWPRP  0.146
60. RRIRQRPPRLPRPRPRPSDAPRP  0.147
61. RRIRPRPPRLPRPRPRPFCVPRP  0.156
62. RRIRERPPRLPRPRPRPPTQPRP  0.159
63. RRIRMRPPRLPRPRPRPWSRPRP  0.163
64. RRIRMRPPRLPRPRPRPCMLPRP  0.303
65. RRIRGRPPRLPRPRPRPNFCPRP  0.362
66. RRIRKRPPRLPRPRPRPWDRPRP  0.394
67. RRIRGRPPRLPRPRPRPDGHPRP  0.471
68. RRIRKRPPRLPRPRPRPTSTPRP  0.489
69. RRIRKRPPRLPRPRPRPGMLPRP  0.542
70. RRIRDRPPRLPRPRPRPEMTPRP  0.679
71. RRIRRRPPRLPRPRPRPGRLPRP  0.728
72. RRIRKRPPRLPRPRPRPSRGPRP  0.741
73. RRIRRRPPRLPRPRPRPPQGPRP  0.856
74. RRIRMRPPRLPRPRPRPGPPPRP  1.23
75. RRIRMRPPRLPRPRPRPEERPRP  2.6
